# Experimental data taken from patent publication US20230142800A1 (COMMISSARIAT A L ENERGIE ATOMIQUE ET AUX ENERGIES …, published 2023).
# Biological target: T1, biotinylated TNF alpha (human (definition in paragraph 32)); the …, UniProt P01375 77-233, biotinylated (site not stated))
# T1 construct: Used for FACS sorting of yeast libraries and immobilised on streptavidin sensors for BLI; also called TNFα; Tumor Necrosis Factor Alpha
# Experiment: yeast display FACS sorting on biotinylated TNF alpha, NGS enrichment, CDRH2-CDRH3 library
# T1 sequence (P01375 77-233 limits assumed): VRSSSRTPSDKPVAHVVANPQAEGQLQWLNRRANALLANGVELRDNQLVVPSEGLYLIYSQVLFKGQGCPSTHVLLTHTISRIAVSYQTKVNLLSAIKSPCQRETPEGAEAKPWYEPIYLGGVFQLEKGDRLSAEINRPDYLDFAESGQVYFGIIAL
row,Binder,Enrichment
1,"Mutant 5, Fab displayed on yeast (CDRH2-CDRH3 combinatorial library) (Fab, V domains shown, same variable domains as the soluble Mutant 5 Fab; see its note) VH: EVQLVESGGGLVQPGRSLRLSCAASGFTFDDYAMHWVRQAPGKGLEWVGDISWNGGHTDYADSVEGRFTISRDNAKNSLYLQMNSLRAEDTAVYYCAKTTYLPTASSLDYWGQGTLVTVSS VL: not shown",512000
2,"Mutant 8, Fab displayed on yeast (CDRH2-CDRH3 combinatorial library) (Fab, V domains shown, same variable domains as the soluble Mutant 8 Fab; see its note) VH: EVQLVESGGGLVQPGRSLRLSCAASGFTFDDYAMHWVRQAPGKGLEWVGAINWNGGHRDYADSVEGRFTISRDNAKNSLYLQMNSLRAEDTALYYCAKTTYLPTASSLDYWGQGTLVTVSS VL: not shown",238000

# The remaining lines, values ahead:
row,Enrichment,Binder
1,1.47e+06,"Mutant 2, Fab displayed on yeast (CDRH2-CDRH3 combinatorial library) (Fab, V domains shown, same variable domains as the soluble Mutant 2 Fab; see its note) VH: EVQLVESGGGLVQPGRSLRLSCAASGFTFDDYAMHWVRQAPGKGLEWVGTINWNGGHSDYADSVEGRFTISRDNAKNSLYLQMNSLRAEDTAVYYCAKTTYLPTASSLDYWGQGTLVTVSS VL: not shown"
2,217000,"Mutant 1, Fab displayed on yeast (CDRH2-CDRH3 combinatorial library) (Fab, V domains shown, same variable domains as the soluble Mutant 1 Fab; see its note) VH: EVQLVESGGGLVQPGRSLRLSCAASGFTFDDYAMHWVRQAPGKGLEWVGAINWNGGHRDYADSVEGRFTISRDNAKNSLYLQMNSLRAEDTAVYYCAKSQYLPTASSLDYWGQGTLVTVSS VL: not shown"
3,186000,"Mutant 4, Fab displayed on yeast (CDRH2-CDRH3 combinatorial library) (Fab, V domains shown, same variable domains as the soluble Mutant 4 Fab; see its note) VH: EVQLVESGGGLVQPGRSLRLSCAASGFTFDDYAMHWVRQAPGKGLEWVGAINWNSGHHDYADSVEGRFTISRDNAKNSLYLQMNSLRAEDTAVYYCAKTTYLPTASSLDYWGQGTLVTVSS VL: not shown"
4,59400,"Mutant 7, Fab displayed on yeast (CDRH2-CDRH3 combinatorial library) (Fab, V domains shown, same variable domains as the soluble Mutant 7 Fab; see its note) VH: EVQLVESGGGLVQPGRSLRLSCAASGFTFDDYAMHWVRQAPGKGLEWVGAINWNGGHRDYADSVEGRFTISRDNAKNSLYLQMNSLRAEDTAVYYCAKAHYLPTASSLDYWGQGTLVTVSS VL: not shown"
5,238000,"Mutant 6, Fab displayed on yeast (CDRH2-CDRH3 combinatorial library) (Fab, V domains shown, same variable domains as the soluble Mutant 6 Fab; see its note) VH: EVQLVESGGGLVQPGRSLRLSCAASGFTFDDYAMHWVRQAPGKGLEWVGAINWNGGHRDYADSVEGRFTISRDNAKNSLYLQMNSLRAEDTAVYYCAKTNYLPTASSLDYWGQGTLVTVSS VL: not shown"
6,111000,"Mutant 3, Fab displayed on yeast (CDRH2-CDRH3 combinatorial library) (Fab, V domains shown, same variable domains as the soluble Mutant 3 Fab; see its note) VH: EVQLVESGGGLVQPGRSLRLSCAASGFTFDDYAMHWVRQAPGKGLEWVGAINWNGGHHDYADSVEGRFTISRDNAKNSLYLQMNSLRAEDTAVYYCAKTTYLPTASSLDYWGQGTLVTVSS VL: not shown"

# Biological target: T1, biotinylated TNF alpha
# Experiment: yeast display FACS sorting on biotinylated TNF alpha, NGS enrichment, CDRH2 library
row,Binder,Enrichment
1,"CDRH2 library mutant SAISWNGGHT (Fab, V domains shown) VH: EVQLVESGGGLVQPGRSLRLSCAASGFTFDDYAMHWVRQAPGKGLEWVSAISWNGGHTDYADSVEGRFTISRDNAKNSLYLQMNSLRAEDTAVYYCAKVSYLSTASSLDYWGQGTLVTVSS VL: not shown",100
2,"CDRH2 library mutant SSIAWNGGHW (Fab, V domains shown) VH: EVQLVESGGGLVQPGRSLRLSCAASGFTFDDYAMHWVRQAPGKGLEWVSSIAWNGGHWDYADSVEGRFTISRDNAKNSLYLQMNSLRAEDTAVYYCAKVSYLSTASSLDYWGQGTLVTVSS VL: not shown",128

# Biological target: T1, biotinylated TNF alpha
# Experiment: BLI (Octet Red96), Fab in solution, biotinylated TNF alpha on streptavidin sensors, 1:1 global fit
# Protocol: After saturation the sensors in a blocking solution containing 10 μg/mL biotin (Sigma-Aldrich, Saint-Louis, United States), the association and dissociation are measured over 20 and 40 minutes respectively. […] During the analysis, the reference is subtracted from each curve and a 1:1 global Langmuir model is applied in order to get the affinity parameters.
row,Binder,Kd [pM]
1,"Mutant 5, Fab format (Fab, V domains shown, Soluble Fab as for Mutant 1; also called mutation 5) VH: EVQLVESGGGLVQPGRSLRLSCAASGFTFDDYAMHWVRQAPGKGLEWVGDISWNGGHTDYADSVEGRFTISRDNAKNSLYLQMNSLRAEDTAVYYCAKTTYLPTASSLDYWGQGTLVTVSS VL: not shown",9
